In paper PMC6494913 (Nature Communications, 2019):
One block for each molecule: values may come before it.

What was measured:
[1] = molecular target: KirBac1.3-GIRK1 chimeric protein (GIRK chimera) in MSP1E3 nanodiscs (mouse | Burkholderia xenovorans) (UniProt P63250); experiment: NMR titration; 1H-13C HMQC (methyl-TROSY) of 11 μM Gα[ILVA]βγ with or without 22 μM (2 eq.) GIRK chimera-nanodiscs; 20 °C; 20 mM HEPES-NaOH pH 7.0, 150 mM KCl, 0.5 mM GDP, 0.1 mM TCEP; signal intensity reductions; apparent Kd estimated
[2] = molecular target: NLuc-tagged GIRK (GIRK1/GIRK2-Luc) (human) (UniProt P48549); experiment: FRET or BRET; agonist-induced BRET in living HEK293T cells between Venus-Gβγ (acceptor) and GRK-Luc or GIRK-Luc (donor); co-expressed GPCR (DOR or D2R), PTX S1 and a PTX-insensitive Gα (C351A); agonist 10 μM, then antagonist; PBS with 0.5 mM MgCl2 and 0.1% glucose; read 3 min after ligand
Sequence of NLuc-tagged GIRK (GIRK1/GIRK2-Luc) (human) (P48549 whole entry, chain 1 of 2): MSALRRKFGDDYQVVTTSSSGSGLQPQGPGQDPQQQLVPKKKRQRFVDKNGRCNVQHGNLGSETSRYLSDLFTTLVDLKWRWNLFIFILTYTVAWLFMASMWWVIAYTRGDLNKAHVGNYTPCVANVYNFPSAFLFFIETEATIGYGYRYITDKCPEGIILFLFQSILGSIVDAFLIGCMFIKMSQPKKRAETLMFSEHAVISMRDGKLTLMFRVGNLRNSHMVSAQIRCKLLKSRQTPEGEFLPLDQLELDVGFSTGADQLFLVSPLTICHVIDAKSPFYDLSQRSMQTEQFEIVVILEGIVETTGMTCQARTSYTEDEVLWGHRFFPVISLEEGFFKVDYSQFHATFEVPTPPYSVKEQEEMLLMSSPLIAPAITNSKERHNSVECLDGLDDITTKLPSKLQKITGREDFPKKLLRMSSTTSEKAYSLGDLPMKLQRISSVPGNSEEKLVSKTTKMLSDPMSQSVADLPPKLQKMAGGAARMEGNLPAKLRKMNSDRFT
Sequence of NLuc-tagged GIRK (GIRK1/GIRK2-Luc) (human) (P48051 whole entry, chain 2 of 2, further chain): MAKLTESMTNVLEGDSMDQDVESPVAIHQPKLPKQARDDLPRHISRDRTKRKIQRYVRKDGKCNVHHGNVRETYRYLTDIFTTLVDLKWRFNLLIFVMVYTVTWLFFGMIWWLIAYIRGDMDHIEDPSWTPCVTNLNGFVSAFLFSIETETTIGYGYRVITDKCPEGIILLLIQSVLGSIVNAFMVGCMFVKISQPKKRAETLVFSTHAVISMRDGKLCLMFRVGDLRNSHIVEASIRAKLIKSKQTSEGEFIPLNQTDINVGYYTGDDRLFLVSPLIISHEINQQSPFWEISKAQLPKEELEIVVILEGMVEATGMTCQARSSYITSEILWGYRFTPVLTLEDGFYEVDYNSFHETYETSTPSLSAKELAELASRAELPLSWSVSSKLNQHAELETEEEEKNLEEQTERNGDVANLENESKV

[3] = molecular target: T1, Gβγ dimer (human Gβ1 and His6-tagged human Gγ2 (C68S)) (human, UniProt P62873 1-340; P59768 1-71, C68S); experiment: SEC; purified Gα and Gβγ mixed with a slight excess of Gβγ; Gαβγ isolated by gel filtration on Superdex 200; conditions: both partners purified
T1 construct: G protein β1 subunit (Gβ1), human; G protein γ2 subunit (Gγ2), human; also called [non-labeled]βγ

- Kd [1]: > 200 µM
Molecule: Gαi3βγ heterotrimer (Gαi3[ILVA] complexed with non-labeled Gβ1γ2(C68S)), GDP-bound (from UniProt P08754 1-354; P62873 1-340; P59768 1-71)

- specificity factor (ΔBRET GIRK/ΔBRET GRK), with D2R and Gαi3 [2]: 0.303
- specificity factor (ΔBRET GIRK/ΔBRET GRK), with D2R and Gαiqi [2]: 0.157
- specificity factor (ΔBRET GIRK/ΔBRET GRK), with D2R and Gαqi5 [2]: 0.091
- specificity factor (ΔBRET GIRK/ΔBRET GRK), with D2R and Gαqiqi5 [2]: 0.236
- specificity factor (ΔBRET GIRK/ΔBRET GRK), with DOR and Gαi3 [2]: 0.286
- specificity factor (ΔBRET GIRK/ΔBRET GRK), with DOR and Gαiqi [2]: 0.148
- specificity factor (ΔBRET GIRK/ΔBRET GRK), with Gαi3-q(αA) [2]: 0.159
- specificity factor (ΔBRET GIRK/ΔBRET GRK), with Gαi3-q(αB) [2]: 0.248
- specificity factor (ΔBRET GIRK/ΔBRET GRK), with Gαi3-q(αE) [2]: 0.249
Molecule: Venus-tagged Gβγ (Venus 156–239-Gβ1 with Venus 1–155-Gγ2) (from UniProt P62873 1-340; P59768 1-71) (complex)

- binding result [3]: binds
B1: Gαiqi (chimeric Gα: GTPase domain of Gαi3, helical domain of Gαq), purified (other, human, UniProt P08754 1-62, looked up)
chain: MGCTLSAEDKAAVERSKMIDRNLREDGEKAAKEVKLLLLGAGESGKSTIVKQMKIIHEDGYSDEDKRGFTKLVYQNIFTAMQAMIRAMDTLKIPYKYEHNKAHAQLVREVDVEKVSAFENPYVDAIKSLWNDPGIQECYDRRREYQLSDSTKYYLNDLDRVADPAYLPTQQDVLRTRVKTTGIVETHFTFKDLYFKMFDVGGQRSERKKWIHCFEGVTAIIFCVALSDYDLVLAEDEEMNRMHESMKLFDSICNNKWFTETSIILFLNKKDLFEEKIKRSPLTICYPEYTGSNTYEEAAAYIQCQFEDLNRRKDTKEIYTHFTCATDTKNVQFVFDAVTDVIIKNNLKECGLY
notes: Gαi3, human, GTPase domain residues 1-62; Gαq, human, helical domain residues 69-180; Gαi3, human, GTPase domain residues 176-354; also called Gαiqi[ILVA]; source: E. coli BL21-CodonPlus (DE3)-RP, purified in the same way as the wild-type Gαi3; not shown: His10, N-terminal, cleaved
